{"source": "patent US7291673B2", "about": "“Conjugate addition reactions for the controlled delivery of pharmaceutically active compounds” (Eidgenossiche Technische Hochschule Zurich, priority 2000, dated 2007)", "key": {"[1]": {"biological_target": "T1, Collagenase (Matrix metalloproteinase I) (Homo sapiens, UniProt P03956)", "T1 sequence (P03956 100-469)": "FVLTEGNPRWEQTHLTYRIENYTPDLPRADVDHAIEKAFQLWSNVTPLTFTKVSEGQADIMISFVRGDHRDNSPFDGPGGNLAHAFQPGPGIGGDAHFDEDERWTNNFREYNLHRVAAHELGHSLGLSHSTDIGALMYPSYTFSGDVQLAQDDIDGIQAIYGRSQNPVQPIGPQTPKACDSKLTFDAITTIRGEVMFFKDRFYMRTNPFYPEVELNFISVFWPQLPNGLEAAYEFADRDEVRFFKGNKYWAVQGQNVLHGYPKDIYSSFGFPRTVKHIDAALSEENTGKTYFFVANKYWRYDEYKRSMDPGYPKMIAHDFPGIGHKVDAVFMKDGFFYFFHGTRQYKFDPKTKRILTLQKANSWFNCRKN", "conditions": "cited from earlier work"}, "[2]": {"assay": "Water solubility of peptide", "assay_type": "physicochemical", "procedure": "The peptide […] (SEQ ID NO: 58) was designed to be sensitive to hydrolysis by the enzyme plasmin, to contain more than one thiol (cysteine) for addition reaction with conjugated unsaturated groups, and to be very water soluble. The peptide was synthesized according to the methods described above. The peptide was extremely water soluble, up to at least 120 mg/ml."}, "[3]": {"test_system": "Human foreskin fibroblasts", "assay": "Fibroblast adhesion and spreading on conjugate addition gels", "assay_type": "cell-based", "conditions": "6 hours post-seeding; RGD peptide on one of every 12 acrylates", "procedure": "Conjugate addition gels were made with 0.1 g/ml PEG-2500-3A and 1.1 acrylates per sulfhydryl in […]. The gels were swollen for 24 hours in Dulbecco's modified Eagle's medium (some in serum-free conditions and some in 10% fetal bovine serum) containing 1% antibiotic and antimycotic agents. Human foreskin fibroblasts (passage 7; passaged with trypsin/EDTA) were seeded onto the gels. […] The cells became increasingly clumped together. The cellular behavior was independent of serum in the medium. Control cells seeded on tissue culture treated polystyrene spread normally.\nConjugate addition gels were made with PEG-2500-3A, […], and an RGD-containing peptide ([…]) incorporated in a pendant fashion. The gels were made with 0.1 g PEG-2500-3A/ml and 1.1 acrylates per sulfhydryl in […]. The gels were swollen for more than 36 hours in Dulbecco's modified Eagle's medium (some in serum-free conditions and some in 10% fetal bovine serum) containing 1% antibiotic and antimycotic agents. When the RGD peptide was incorporated on one of every 12 acrylates of the PEG-2500-3A, human foreskin fibroblasts (passage 8; passaged by trypsin/EDTA) adhered to the gels (both those swollen in serum-free conditions and those in serum-containing medium). At 6 hours post-seeding, the cells were uniformly distributed over the gel surface, and approximately 50% of the seeded cells were spread (in both medium conditions). […]"}, "[4]": {"test_system": "human umbilical vein endothelial cells", "assay": "Endothelial cell spreading on photopolymerized PEG gels containing peptides", "assay_type": "cell-based", "conditions": "400 cells per mm^2; normal cell culture medium", "procedure": "Polyethylene glycol diacrylate of mol. wt. 8000 (230 mg/ml) was allowed to dissolve in HEPES buffered saline (10 mmol HEPES, Sigma, 8 g/L NaCl, pH 7.4) for one hour. Triethanolamine (Aldrich, 15.3 μl/ml) was added, and the pH of the solution was adjusted to pH 8 with 6 N HCl. Cysteine containing peptides were dissolved in 116.5 μl of HEPES buffered saline, and added to 870 μl of the PEG solution with vortexing. After 5 minutes, 3.5 μl of N-vinyl pyrrolidone and 10 μl of a 10 mM solution of Eosin Y were added, followed by vortexing. Gels were formed by exposure to light at 75 mW/cm^2 for one minute (Cermax Xenon Lightsource, transmitting light between 470 and 520 nm; ILC Technology, Sunnyvale, Calif., USA). Gels were allowed to swell in Tris buffered saline, pH 7.4 (4.36 g Tris HCl, 0.64 g Trizma base, 8 g NaCl, 0.2 g KCl per 1 L, all from Sigma) for 36 hr.\nPEG gels were prepared as described above, using the peptide […]. Most cells have receptors that recognize the sequence GRGDSPG (SEQ ID NO: 74), and cells will interact with surfaces displaying immobilized RGD containing peptides. […] Cells were seeded onto the gels at a concentration of 400 cells per mm^2, and the number of spread cells per area were counted at different times (see FIG. 6). […]"}, "[5]": {"assay": "Dissolution of albumin particles in PEG solutions", "assay_type": "physicochemical", "text": "For the gels in which controlled release was observed, protein particles could be seen within the gels for the entire period of release. For all gels, the disappearance of protein particles from the gel was coincident with the completion of delivery of greater than 90% of the protein in the gel. Thus, the solubility of bovine serum albumin in PEG-containing solutions was likely the most important factor in realizing controlled release of the protein. When a solution containing dissolved albumin was mixed with a solution containing dissolved PEG, the albumin precipitated, dependent upon the concentrations and the molecular weight of the PEG. Similarly, when particles of bovine serum albumin were added to a PEG solution, the kinetics of dissolution of the albumin were strongly affected by the presence of PEG. The albumin solids completely dissolved in 50 mM PBS buffer, pH 7.4 in three minutes in the absence of PEG. With 10% PEG molecular weight 8000 in solution, the time to dissolution of the albumin particles increased to six minutes. […] With 20% PEG molecular weight 8000, the protein particles dissolved to form a second liquid phase within one hour. This was presumably a true coacervate with one protein-rich, polymer-poor phase, and one polymer-rich, protein-poor phase."}, "[6]": {"conditions": "cited from earlier work"}, "[7]": {"biological_target": "plasmin (Homo sapiens, UniProt P00747)", "sequence (P00747 581-810 limits assumed, species assumed)": "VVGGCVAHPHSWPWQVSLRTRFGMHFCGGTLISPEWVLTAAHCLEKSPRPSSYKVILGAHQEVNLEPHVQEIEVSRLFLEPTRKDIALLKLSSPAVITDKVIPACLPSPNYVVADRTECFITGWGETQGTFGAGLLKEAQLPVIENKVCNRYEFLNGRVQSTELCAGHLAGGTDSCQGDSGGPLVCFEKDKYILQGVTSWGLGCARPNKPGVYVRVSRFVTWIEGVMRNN", "sequence (P00747 97-580 partner limits assumed, species assumed)": "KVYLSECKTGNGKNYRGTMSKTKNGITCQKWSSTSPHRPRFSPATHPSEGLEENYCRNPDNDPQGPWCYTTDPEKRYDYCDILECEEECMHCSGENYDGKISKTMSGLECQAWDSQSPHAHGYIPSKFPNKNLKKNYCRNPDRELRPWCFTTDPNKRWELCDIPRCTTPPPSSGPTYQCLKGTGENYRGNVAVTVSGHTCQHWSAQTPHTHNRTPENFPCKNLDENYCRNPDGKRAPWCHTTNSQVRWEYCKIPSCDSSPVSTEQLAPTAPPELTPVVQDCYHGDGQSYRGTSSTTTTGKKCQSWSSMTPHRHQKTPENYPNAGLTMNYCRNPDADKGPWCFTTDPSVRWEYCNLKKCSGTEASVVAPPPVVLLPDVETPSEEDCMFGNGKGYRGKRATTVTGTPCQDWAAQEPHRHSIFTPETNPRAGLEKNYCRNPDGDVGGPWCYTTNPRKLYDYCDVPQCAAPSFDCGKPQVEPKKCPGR", "assay": "Plasmin stability of peptides by analytical C18 HPLC", "assay_type": "biochemical", "conditions": "37° C.; plasmin at 1/1000 the peptide concentration", "text": "Analytical C18 HPLC (linear acetonitrile gradient over 0.1% TFA in water) was used to confirm the relative plasmin-stability of GCY-DLys-N-DArg-DCG. The following samples were run: plasmin; […]; plasmin+[…]; GCY-DLys-N-DArg-DCG; and plasmin+GCY-DLys-N-DArg-DCG."}}, "note": "Non-standard residues stand in square brackets, D forms with d. Residues, ends and D or L forms follow the SMILES beside them. No end group written: not given here."}
{"compound": "GPQGIAGQ", "values": [{"measurement": "kcat/Km relative to that of PQGIAG", "setting": "[1]", "result": "100% (normal)"}]}
{"compound": "N=C(N)NCCC[C@H](NC(=O)[C@H](CC(N)=O)NC(=O)[C@H](CCCCN)NC(=O)[C@H](Cc1ccc(O)cc1)NC(=O)[C@H](CS)NC(=O)CN)C(=O)N[C@@H](CC(=O)O)C(=O)N[C@@H](CS)C(=O)NCC(=O)O", "note": "(H-GCYKNRDCG-OH; N-terminus and C-terminus assumed)", "values": [{"measurement": "solubility", "setting": "[2]", "result": "≥ 120", "unit": "mg/mL"}]}
{"compound": "GPQGIFGQ", "values": [{"measurement": "kcat/Km relative to that of PQGIAG", "setting": "[1]", "result": ">300% (faster)"}]}
{"compound": "GCGYGRGDSPG (not fully specified) [RGD-containing adhesion peptide incorporated into gels in a pendant fashion]", "values": [{"measurement": "seeded cells spread", "setting": "[3]", "result": "approximately 50%"}, {"measurement": "cell spreading on PEG gels containing peptide", "setting": "[4]", "result": "Cells could only spread on gels that contained the peptide"}]}
{"compound": "albumin: bovine serum albumin (Cohn fraction V), model protein", "values": [{"measurement": "time to complete dissolution of albumin solids", "setting": "[5]; 50 mM PBS buffer, pH 7.4, absence of PEG", "result": "three"}, {"measurement": "time to dissolution of albumin particles", "setting": "[5]; 10% PEG molecular weight 8000", "result": "six"}, {"measurement": "time to dissolve into a second liquid phase", "setting": "[5]; 20% PEG molecular weight 8000", "result": "one"}, {"measurement": "dissolution of protein", "setting": "[5]; 30 or 40% PEG molecular weight 8000", "result": "did not dissolve after seven days"}]}
{"compound": "NCCCC[C@H](N)C(=O)O", "note": "[lysine]", "values": [{"measurement": "pK of side chain epsilon amine", "setting": "[6]; side chain epsilon amine", "result": 10.80}]}
{"compound": "GPVGIAGQ", "values": [{"measurement": "kcat/Km relative to that of PQGIAG", "setting": "[1]", "result": "30% (slow)"}]}
{"compound": "GPQGIWGQ", "values": [{"measurement": "kcat/Km relative to that of PQGIAG", "setting": "[1]", "result": ">700% (very fast)"}]}
{"compound": "GPQGVAGQ", "values": [{"measurement": "kcat/Km relative to that of PQGIAG", "setting": "[1]", "result": "9% (slower)"}]}
{"compound": "GCGYGRDGSPG (Based on Homo sapiens)", "values": [{"measurement": "cell spreading on PEG gels containing peptide", "setting": "[4]", "result": "has no biological activity"}]}
{"compound": "GPQGIASQ", "values": [{"measurement": "kcat/Km relative to that of PQGIAG", "setting": "[1]", "result": "130% (fast)"}]}
{"compound": "GCY-DLys-N-DArg-DCG (GCY[dK]N[dR]DCG; cysteine pairing not given here)", "values": [{"measurement": "degradation of peptide by plasmin", "setting": "[7]", "result": "unaffected by the plasmin at 24 hours"}]}
{"compound": "NC(=O)C[C@H](N)C(=O)O", "note": "[asparagine]", "values": [{"measurement": "pK of alpha amine", "setting": "[6]; alpha amine of amino acid", "result": 8.8}]}
{"compound": "GPQGRAGQ", "values": [{"measurement": "kcat/Km relative to that of PQGIAG", "setting": "[1]", "result": "<5% (very slow)"}]}
